Experimental data reported in the DeepSol protein solubility set.

assay: soluble on expression in E. coli; label from the status in PepcDB or PDB records

| Sequence | soluble on expression in E. coli |
| --- | --- |
| MSLKYGRDTIVEVDLNAVKHNVKEFKKRVNDENIAMMAAVKANGYGHGAVEVAKAAIEAGINQLAIAFVDEAIELREAGINVPILILGYTSVAAAEEAIQYDVMMTVYRSEDLQGINEIANRLQKKAQIQVKIDTGMSRIGLQEEEVKPFLEELKRMEYVEVVGMFTHYSTADEIDKSYTNMQTSLFEKAVNTAKELGIHIPYIHSSNSAGSMEPSNTFQNMVRVGIGIYGMYPSKEVNHSVVSLQPALSLKSKVAHIKHAKKNRGVSYGNTYVTTGEEWIATVPIGYADGYNRQLSNKGHALINGVRVPVIGRVCMDQLMLDVSKAMPVQVGDEVVFYGKQGEENIAVEEIADMLGTINYEVTCMLDRRIPRVYKENNETTAVVNILRKN | not soluble |
| MSLQRPLGNHHDGPDTLLVTSDATQTELVTAETEKLRELITRARFVLFDFDGPICRLFAGHKAERVAVELVEWLEGRGLHALLSETEREALDPHIVLRAVDRRHPGSDLVAELEERLTKQELRAASSAMPTAYADPLIRTWTAVGARLAIATNNSPRVARKYVASRGLSACFAPHIYGRTQDLHLLKPDPHCLNRALNAMGAAPSASLMIGDTPSDYFAAQRAGVPFLGYARNDRKEKLLKEAGAEEIVGSLELVLRVLREQSASAREGHHHHHH | soluble |
| MSLSRPRSVADHPMINPRLIALPDYPFQRLATLLAGVAPGADPLALSVGEPQHPTPALAGLELARHGDQWRRYPPAAGNERWKAAVTAWLTRRYGLPAAMIDPHAVIPASGTREALYMLGQVLTDGRGEAGERPLVVMPDPLYLPYLGAARMNGATILAVPGSEEGDFLPDIAGLPAATLERAAAVFVCSPANPQGSIVSLESWKTLVGLARRHGFVLVADECYSEIYDDQPPPGVLEACRDLGGSLKNVLVLNSLSKRSNGAGLRSGLIAGDRALIDAFLRLRAYASAGMPLPIMEASAALWDDETHVEANRALYREKIDLAAARLKGMLGFRRPPGGFFLWLDTTPWGETGEQATLRLWRDHGLKVLPGAYMTANPDAGDNPARNRLRLALVHDGPVVARALDRLVAASPHEGHHHHHH | soluble |
| MVEKIWFENHPLKYLLWPLLWPLSVLFGAISRSKRQQFQTGRKQAYQAPVPVVVVGNITAGGNGKTPVVVWLVEQLQHLGYKPGVVSRGYGAKAPQYPLVLNDDTPTQHCGDEPKLIHRRTGAPVAVDPVRANAVKALVELDVDIIITDDGLQHYALERDVELVIVDGNRRFGNECLIPLGPLREGVERLQEVDFIITNGGLAHQGEISMSLAPSKAINLKTKQQVDVSELKALVAFAGIGHPPRFFNTLESMHADVKVTKGFADHQDFDQKELEALALQGANVIMTEKDAVKCSDYAQDNWWYLPVSAQLEPKDAERILNRIKEVKATYGSPSAAAALEHHHHHH | soluble |
| MGSDKIHHHHHHAEDYMETDKGHDTLTLTVNQQEIVLNEKNHTQEALTLSWTTGTNYGSGNRISYTLEIAKAGTDFARAYSVDLGTGTYQWTKKTEELNQFLNTQLGVGYAEKVSLEARITATVAGMEEKEQRATVALDVTTYQPVTPTLYLIGEAAPNGWSADQATPMERTDNGQFTWTGKLNTGVFKFITTLGEFLPSYNRDAAAGEELRLIYRTSGDEPDEPFTVSKEATYIVKVDLLDLTMTMTETENIGWRFEEFYIVGSFTGDNGWGFEALSKDAVQMNLFHYGAVIPWKADGDFKFTSVTDFGQSDAFFHPTEGNAPYTSTSVVLGGEDNKWQMKESECGKAYKVLFLTAKGKEKMLMRPFTPYEGLYLVGDATPNGWSIDNATPMAKSADSPYIFTWSGTLNTGEMKISCDKQSDWNGDWLMADKSGKAPTGEVETALFTSKTDAELKNMYPDTDLGSLDNKWNIQEAGSYRITIDQLKETISIVKQ | not soluble |
| MGHHHHHHSHMINVDPPTGNYPATGGNSTHNITSESDSRLAFKVKSSNNEHYRVRPVYGFVDAKGKSKLDINRLPGPPKEDKIVIQYAEVPAEETDPMAPFKAGAQQGEIIVKLIAA | soluble |
| MAAAKRKLVFDSPNESSVNFETSPNFPKEWKIDGMDIENRIRNFRDELQAQGLCPVGSAGIDPKSKFRTEYRRIVNANTILTDVLRLQQKEGEWLKNASGLLEYDIQSLHARRDHLDNAVEQLKSQLSRLDSSVAILKSQQMAVKSVLELREDEYLADDADSNLPDEFLKFSKISKLCAASLQSYENVKKRNEEMQKELIAERNRQRKLHDATMKMMEEKERVRVEQLEDLFKDFSLEQLTRLRDRIRQAQK | not soluble |
| MAKPIPVKVVVLTTFEIGAVTGDRPGEFQPWVEGLPLTETIAVPGLRHPARYSPKDGVLGVMTDMRARARESVAALLLDKRFDFSKTYWLVAGIAGVDPKAASIGSAAWARYVVDADPIYEVDDREIPADWPYGLYALETERPNVKGSAEGSSGMVWALNWRLVDWAYGLTAKVEIPDHPGLAALRAPYVGDPNAQRPPFVLKGEALGATRFWHGAKRTQWAQDWVKLWTDGAGVFVMTDCEDQGILDVLDLYAKAGRVDFQRVMVLRTASNYSRPPLGAPAFPRAFHDEGAVSAFDSAYRVGSVVVRELTARWDRYEANTPDMTAIGGTAKLEHHHHHH | not soluble |
| MRGSHHHHHHMDYASVAMAAAPTTTTTTNVSLRRQRHRKEKLLVLMGATGTGKSRLSIDLAAHFPLEVINSDKMQVYKGLDITTNKISVPDRGGVPHHLLGEVDPARGELTPADFRSLAGKAVSEITGRRKLPVLVGGSNSFIHALLVDRFDSSGPGVFEEGSHSVVSSELRYDCCFLWVDVSVKVLTDYLAKRVDDMLELGMFDELAEFYSPEDEDHDEDSATRTGLRKAIGVPEFDRYFEKFRPGDVEGEDPGRDRVRRGAFEEAVRAIKENTCHLAKRQIGKILRLKGAGWDLRRLDATESFRAAMTSDSGEKCTEIWEKQVLEPSVKIVSRFLDE | soluble |
| SHMQPFVYMAAPARIVFSAGSSADVAEEIRRLGLSRALVLSTPQQKGDAEALASRLGRLAAGVFSEAAMHTPVEVTKTAVEAYRAAGADCVVSLGGGSTTGLGKAIALRTDAAQIVIPTTYAGSEVTPILGQTENGVKTTMRGPEILPEVVIYDAELTLGLPVAISMTSGLNAMAHAAEALYARDRNPIASMMAVEGLRAMIEALPVVRQAPHDIGARETALYGAWLCGTVLGAVGMSLHHKLCHTLGGSLDLPHAETHAVLLPHTIAYVEEAAPNLLAPLAALVGGRAGAGLFDFAARLGAPSSLAALGVGADDLDPMAELATANPYWCPRPIEKTAIRDLLQRAFEGARPA | soluble |
| MSLEELPRFFTQNGRHALLVDGAPYTILAAQLHNSSAWPAVLPPALDQVVALHANTVEAPVYWEQFEPAPGRFDTTNVDALIAGARKRGLRVALLWFGSWKNGQMHYVPEWIKRDEATYPRMRDANGEPVDVLSPHVAANVQADARAFTALMQHLRKVDGDRHTVIVVQVENEPGAIGTVRDHGPAGEAAFAQPVPAGIAAALGKPAGSWQQLFGAEAAEAFNAHATAAYIEQVAAAGKRVYPLPLYVNTWLRYKGKRYPGMDYPSGGATVNVFALWRAATPSIDFIGTDIYTSDYGEYTKVIGQYAREGHHHHHH | soluble |
| MKLGNVVIVLGKRLVNNQLSAEGISRVEALAAKIREMPMENTALVFCGGKTQGQSISEADAMYAYFQTLNTSLAKPFPTSQTLLENRSLNTFENMRNAAKVLCESGLFPLPSQATVEVILLSNVYHLERILEIQTLMDEQGLLRVIKSQCASVGLDLHISLDIQKHISVPYPHQGPQAEAFLLLDELTTYRVYLEGVKSGAFQRDLTSVRAQPLLRAKQAISQLRALPLEMDVLQQIAEMKKAIEMTAFDESVATAERALEMFHPILTALNRRLDPESIQAAALEHHHHHH | soluble |
| MSELKDIIAAVTPCKGADFELQALKIRQPQGDEVLVKVVATGMCHTDLIVRDQKYPVPLPAVLGHEGSGIIEAIGPNVTELQVGDHVVLSYGYCGKCTQCNTGNPAYCSEFFGRNFSGADSEGNHALCTHDQGVVNDHFFAQSSFATYALSRENNTVKVTKDVPIELLGPLGCGIQTGAGACINALKVTPASSFVTWGAGAVGLSALLAAKVCGASIIIAVDIVESRLELAKQLGATHVINSKTQDPVAAIKEITDGGVNFALESTGSPEILKQGVDALGILGKIAVVGAPQLGTTAQFDVNDLLLGGKTILGVVEGSGSPKKFIPELVRLYQQGKFPFDQLVKFYAFDEINQAAIDSRKGITLKPIIKIA | soluble |
| MGSMVCDVCHHECETAKELESHRQSCINGQCPYCMTITEATESALQAHYSICKLTGR | soluble |
| MGSDKIHHHHHHMGNVIVVTSGKGGVGKTTITANLGCALAKLGEKVCLIDADIGLKNLDIVLGLENRIVYTMIDVVNGKVSPQEALVKHKMLKNLYLLPASQIATKEMISPNDMKAIVKELIPHFDYIIIDSPAGIERGFRNAVAPAERVLVVTTPELPAISDADRVIGLLENFGFSDEKINVIINRFKPHMVKKGEMLTTDDIKHTLSLEIIAVIPDSEDIIVASNTGIPVSLNGNSRISKNFENLARRIRGEGVPLENDFVTVSKGLIDTLKDFFSKLKRG | not soluble |
| MGHHHHHHSHMKATSVIDDFLGGYFCILGLLQPHLERVAIDALQLCCLLLPPPNRRKLQLLMRMISRMSQNVDMPKLHDAMGTRSLMIHTFSRCVLCCAEEVDLDELLAGRLVSFLMDHHQEILQVPSYLQTAVEKHLDYLKKGHIENPGDGLFAPLPTYSYCKQISAQEFDEQKVSTSQAAIAELLENIIKNRSLPLKEKRKKLKQFQKEYPLIYQKRFPTTESEAALFGDKPTIKQPMLILRKPKFRSLR | not soluble |
| MSEENITNVQENASDYNEDQIQVLEGLEAVRKRPGMYIGSTSQRGLHHLVWEIVDNAIDEALAGFCTEIEITIEADNSITVRDNGRGIPTGINEKIGRPTVEVIFTVLHAGGKFGGGGYKVSGGLHGVGASVVNALSTSLEVYVHREGQKYYQRFERGDVVMDMEEQGETDYRGTIVHFTPDPQIFTETTEFDFDTLRTRTRELAFLNRGLTISIEDKREEHKVRKDFHYEGGIRSYVEHLNKAKDVIHEPPIYLEGERDDIMVEISMQYNTGFSSNIISFANNIHTYEGGTHESGFKTALTRVINDYARRNKLFKDSDDNLSGEDVREGLTAIISIKHPDPQFEGQTKTKLGNSEARSITDKLFSEALNKFMMENPDVAKKIVEKGVVASRARLAAKRAREVARKSSGLEISSLPGKLADCSSRNPEISELYIVEGDSAGGSAKQGRDRLFQAILPIRGKILNVEKARLDRILANEEIRTIFTAMGTGFGGDFDVSKSRYHKLIIMTDADVDGAHIRTLLLTLFYRYMRPLLDAGYIYIAQPPLYQIKHGKQIEYVYSDGQLEDYLASLDGDTKYSIQRYKGLGEMNPEQLWDTTMNPEHRTLLQVNIKDAIDADETFEMLMGDRVEPRRKFIEDNAQYVKNLDV | not soluble |
| SDFPPTKLDYHVDMFNLQSHSRFLSLFKAQDGRIALILESTVFHPQGGGQPSDTGLIVFSGSDLKFSVQDVRSKDGIVLHYGVFEGSNPESGIDSEKGKEVYLTVDESRRKLNSRLHSAGHLLDMCMQKVGLGHLEPGKGYHFPDGPFVEYKGSVPQEEFQVKQKELEAEANELISKGGKVYAAILPYEEASVLCGGSLPDYISKGSTPRIIKLGDSPGCPCGGTHVSNLSDIISMKMRTKKGMTKVFYTIAS | soluble |
| MGSDKIHHHHHHMSKLIVPQWPQPKGVAACSSTRIGGVSLPPYDSLNLGAHCGDNPDHVEENRKRLFAAGNLPSKPVWLEQVHGKDVLKLTGEPYASKRADASYSNTPGTVCAVMTADCLPVLFCNRAGTEVAAAHAGWRGLCAGVLEETVSCFADNPENILAWLGPAIGPRAFEVGGEVREAFMAVDAKASAAFIQHGDKYLADIYQLARQRLANVGVEQIFGGDRCTYTENETFFSYRRDKTTGRMASFIWLI | soluble |
